According to patent US20230242675A1 (SHANGHAI EPIMAB BIOTHERAPEUTICS, published 2023):
Values belong to the binder of their own block, whether it stands above or below them.

Columns and labels:
[1] = target: T1, human PD-L1/His fusion protein (human, UniProt Q9NZQ7 19-239); assay: BLI off-rate; test group 3
Protocol: (§1) All 15 antibodies in Table 13 were assayed for and ranked by dissociation rate constant (koff). […] Briefly, antibodies were characterized for affinities and binding kinetics by Octet®RED96 biolayer interferometry (Pall ForteBio LLC). Antibodies were captured by Anti-hIgG Fc Capture (AHC) Biosensors (Pall) at a concentration of 100 nM for 30 seconds. Sensors were then dipped into running buffer (1×pH 7.2 PBS, 0.05% Tween 20, 0.1% BSA) for 60 seconds to check the baseline. Binding was measured by dipping sensors into a single concentration of recombinant human PD-L1/His fusion protein (Novoprotein). Dissociation was followed by dipping sensors into running buffer for 1200 seconds. The association and dissociation curves were fitted to a 1:1 Langmuir binding model using ForteBio Data Analysis software (Pall). […] The off-rate ratio serves as a data normalization. Accordingly, in each test group, the off-rate ratios of the humanized antibodies can be compared with that of the chimeric antibody, and the off-rate ratios of each of the humanized antibodies can be compared to one another within all test groups.

[2] = target: T1, human PD-L1/His fusion protein; assay: BLI Octet RED96, antibody on AHC sensor, single conc. PD-L1/His; test group 3
Protocol: as §1

human TGFβ2 = target: T2, human TGFβ2 (human, UniProt P61812 303-414); assay: ELISA: human TGFβ2 coated (1 µg/ml), binding protein titrated 0.0006-10 nM, anti-human IgG Fc-HRP, OD450
T2 construct: also called TGFβ isoform 2; TGFβ2 (Cat. No. CJ79, Novoprotein)
T2 sequence (looked up): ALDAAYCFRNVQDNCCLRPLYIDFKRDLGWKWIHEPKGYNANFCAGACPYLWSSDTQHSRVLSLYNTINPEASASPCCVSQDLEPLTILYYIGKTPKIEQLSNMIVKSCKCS
Protocol: (§2) Accordingly, each of the wells of the ELISA microplates provided a reaction mixture to test the ability of a particular binding protein at a particular concentration to bind to a particular TGFβ isoform. […] Plates were washed three times in washing buffer (PBS containing 0.05% Tween 20) and blocked for 1 hour at 37° C. with 200 μl per well of blocking buffer (1% BSA in PBS containing 0.05% Tween 20). […] The wells containing the various binding mixtures were incubated at 37° C. for 1 hour to permit binding to TGFβ protein on the surface of the wells. Thereafter, the wells were washed four times with washing buffer, and anti-human IgG Fc HRP (Sigma, Catalog No. A0170) was diluted 1:10000 and added to the wells at 100 μl per well to detect binding protein that was bound to TGFβ protein present on the surface of a well. The plates were incubated for 1 hour at 37° C. and washed four times with washing buffer. 100 μl of tetramethylbenzidine (TMB) chromogenic solution were added per well. Following color development, the reaction was stopped with 1 N HCl, and absorbance at 450 nm (OD450) was measured on a VARIOSKAN™ LUX microplate reader (Thermo Scientific™).

human TGFβ1 = target: T3, human TGFβ1 (human, UniProt P01137 279-390); assay: ELISA: human TGFβ1 coated (1 µg/ml), binding protein titrated 0.0006-10 nM, anti-human IgG Fc-HRP, OD450
T3 construct: also called TGFβ isoform 1; TGFβ1 (Cat. No. CA59, Novoprotein)
Protocol: as §2

[3] = target: T1, human PD-L1/His fusion protein; assay: BLI Octet RED96, antibody on AHC sensor, single conc. PD-L1/His; test group 1
Protocol: as §1

[4] = target: T1, human PD-L1/His fusion protein; assay: BLI off-rate; test group 1
Protocol: as §1

[5] = target: T1, human PD-L1/His fusion protein; assay: BLI off-rate; test group 2
Protocol: as §1

[6] = target: T1, human PD-L1/His fusion protein; assay: BLI Octet RED96, antibody on AHC sensor, single conc. PD-L1/His; test group 2
Protocol: as §1

T1 sequence (Q9NZQ7 19-239 limits assumed): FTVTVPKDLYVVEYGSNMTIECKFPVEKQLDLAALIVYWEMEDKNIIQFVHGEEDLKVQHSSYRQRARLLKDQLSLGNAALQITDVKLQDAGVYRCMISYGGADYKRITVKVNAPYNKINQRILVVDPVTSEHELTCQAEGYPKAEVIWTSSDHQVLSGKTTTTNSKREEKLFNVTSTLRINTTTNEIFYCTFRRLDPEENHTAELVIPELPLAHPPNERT
T3 sequence (P01137 279-390 limits assumed): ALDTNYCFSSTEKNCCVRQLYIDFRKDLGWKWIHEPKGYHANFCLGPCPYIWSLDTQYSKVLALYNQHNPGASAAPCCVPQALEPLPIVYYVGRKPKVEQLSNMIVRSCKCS

B1: EM0005-86c-G55A (antibody, human IgG1, V domains shown)
VH: QVQLQQSGAELVRPGSSVKMSCKTSGYTFTTYGINWVKQRPGQGLEWIGYIYIGNAYTEYNEKFKGKATLTSDPSSRTAYMQLSSLTSEDSAIYFCARDLMVIAPKTMDYWGQGTSVTVSS
VL: DIQMNQSHKFMSTSVGDRVSITCKASQDVGTAVAWYQQKPGQSPKLLIYWASTRHTGVPDRFTGGGSGTDFTLTISNVQSEDLADYFCQQYSSYPYTFGGGTKLEMK
notes: Chimeric antibody with G55A (Kabat) in CDR-H2; also called HuEM0005-86-G55A
Off-Rate Ratio to that of EM0005-86c [1]: 108%
koff [2]: 0.00111 s⁻¹

B3: HuEM0005-86-4 (antibody, human IgG1, V domains shown)
VH: EVQLVQSGAEVKKPGASVKVSCKASGYTFTTYGINWVRQAPGQGLEWIGYIYIGNGYTEYNEKFKGRVTLTSDTSTSTAYMELSSLRSDDTAVYYCARDLMVIAPKTMDYWGQGTTVTVSS
VL: DIQMTQSPSSVSASVGDRVTITCKASQDVGTAVAWYQQKPGKAPKLLIYWASTRHTGVPDRFTGSGSGTDFTLTISSLQPEDFATYYCQQYSSYPYTFGGGTKVEIK
koff [3]: 0.000957 s⁻¹
Off-Rate Ratio to that of EM0005-86c [4]: 78%

B4: HuEM0005-86-1 (antibody, human IgG1, V domains shown)
VH: EVQLVQSGAEVKKPGASVKVSCKASGYTFTTYGINWVRQAPGQGLEWMGYIYIGNGYTEYNEKFKGRVTMTTDTSTSTAYMELSSLRSDDTAVYYCARDLMVIAPKTMDYWGQGTTVTVSS
VL: DIQMTQSPSSVSASVGDRVTITCKASQDVGTAVAWYQQKPGKAPKLLIYWASTRHTGVPDRFTGSGSGTDFTLTISSLQPEDFATYYCQQYSSYPYTFGGGTKVEIK
koff [3]: 0.00147 s⁻¹
Off-Rate Ratio to that of EM0005-86c [4]: 120%

B7: HuEM0005-86-5 (antibody, human IgG1, V domains shown)
VH: EVQLVQSGAEVKKPGASVKVSCKASGYTFTTYGINWVRQAPGQGLEWIGYIYIGNGYTEYNEKFKGKATLTSDTSTSTAYMELSSLRSDDTAVYYCARDLMVIAPKTMDYWGQGTTVTVSS
VL: DIQMTQSPSSVSASVGDRVTITCKASQDVGTAVAWYQQKPGKAPKLLIYWASTRHTGVPDRFTGSGSGTDFTLTISSLQPEDFATYYCQQYSSYPYTFGGGTKVEIK
Off-Rate Ratio to that of EM0005-86c [1]: 120%
koff [2]: 0.00124 s⁻¹

B12: HuEM0005-86-3 (antibody, human IgG1, V domains shown)
VH: EVQLVQSGAEVKKPGASVKVSCKASGYTFTTYGINWVRQAPGQGLEWMGYIYIGNGYTEYNEKFKGRVTLTSDTSTSTAYMELSSLRSDDTAVYYCARDLMVIAPKTMDYWGQGTTVTVSS
VL: DIQMTQSPSSVSASVGDRVTITCKASQDVGTAVAWYQQKPGKAPKLLIYWASTRHTGVPDRFTGSGSGTDFTLTISSLQPEDFATYYCQQYSSYPYTFGGGTKVEIK
koff [3]: 0.00142 s⁻¹
Off-Rate Ratio to that of EM0005-86c [4]: 115%

B13: HuEM0005-86-2 (antibody, human IgG1, V domains shown)
VH: EVQLVQSGAEVKKPGASVKVSCKASGYTFTTYGINWVRQAPGQGLEWMGYIYIGNGYTEYNEKFKGRVTMTSDTSTSTAYMELSSLRSDDTAVYYCARDLMVIAPKTMDYWGQGTTVTVSS
VL: DIQMTQSPSSVSASVGDRVTITCKASQDVGTAVAWYQQKPGKAPKLLIYWASTRHTGVPDRFTGSGSGTDFTLTISSLQPEDFATYYCQQYSSYPYTFGGGTKVEIK
koff [3]: 0.000887 s⁻¹
Off-Rate Ratio to that of EM0005-86c [4]: 72%

Continued, values first:

EC50 (human TGFβ2): 3.6 nM
EC50 (human TGFβ1): 0.696 nM
B2: bintrafusp alfa (bispecific antibody, human IgG1, lambda)
heavy: not shown
light: QSALTQPASVSGSPGQSITISCTGTSSDVGGYNYVSWYQQHPGKAPKLMIYDVSNRPSGVSNRFSGSKSGNTASLTISGLQAEDEADYYCSSYTSSSTRVFGTGTKVTVLGQPKANPTVTLFPPSSEELQANKATLVCLISDFYPGAVTVAWKADGSPVKAGVETTKPSKQSNNKYAASSYLSLTPEQWKSHRSYSCQVTHEGSTVEKTVAPTECS
notes: also called M7824; Bintrafusp alfa protein

koff [3]: 0.00122 s⁻¹
Off-Rate Ratio to that of EM0005-86c [4]: 99%
B5: HuEM0005-86-6 (antibody, human IgG1, V domains shown)
VH: EVQLVQSGAEVKKPGASVKVSCKTSGYTFTTYGINWVRQAPGQGLEWIGYIYIGNGYTEYNEKFKGKATLTSDPSTRTAYMELSSLRSDDTAVYYCARDLMVIAPKTMDYWGQGTTVTVSS
VL: DIQMTQSPSSVSASVGDRVTITCKASQDVGTAVAWYQQKPGKAPKLLIYWASTRHTGVPDRFTGSGSGTDFTLTISSLQPEDFATYYCQQYSSYPYTFGGGTKVEIK
notes: measured without the G55A change

Off-Rate Ratio to that of EM0005-86c [5]: 89%
koff [6]: 0.0016 s⁻¹
B6: HuEM0005-86-9 (antibody, human IgG1, V domains shown)
VH: EVQLVQSGAEVKKPGASVKVSCKASGYTFTTYGINWVRQAPGQGLEWMGYIYIGNGYTEYNEKFKGRVTMTSDTSTSTAYMELSSLRSDDTAVYYCARDLMVIAPKTMDYWGQGTTVTVSS
VL: DIQMTQSPSSVSASVGDRVTITCKASQDVGTAVAWYQQKPGKSPKLLIYWASTRHTGVPDRFTGSGSGTDFTLTISSLQPEDFATYFCQQYSSYPYTFGGGTKVEIK

Off-Rate Ratio to that of EM0005-86c [5]: 88%
koff [6]: 0.00157 s⁻¹
B8: HuEM0005-86-10 (antibody, human IgG1, V domains shown)
VH: EVQLVQSGAEVKKPGASVKVSCKASGYTFTTYGINWVRQAPGQGLEWMGYIYIGNGYTEYNEKFKGRVTLTSDTSTSTAYMELSSLRSDDTAVYYCARDLMVIAPKTMDYWGQGTTVTVSS
VL: DIQMTQSPSSVSASVGDRVTITCKASQDVGTAVAWYQQKPGKSPKLLIYWASTRHTGVPDRFTGSGSGTDFTLTISSLQPEDFATYFCQQYSSYPYTFGGGTKVEIK

Off-Rate Ratio to that of EM0005-86c [5]: 84%
koff [6]: 0.0015 s⁻¹
B9: HuEM0005-86-12 (antibody, human IgG1, V domains shown)
VH: EVQLVQSGAEVKKPGASVKVSCKASGYTFTTYGINWVRQAPGQGLEWIGYIYIGNGYTEYNEKFKGKATLTSDTSTSTAYMELSSLRSDDTAVYYCARDLMVIAPKTMDYWGQGTTVTVSS
VL: DIQMTQSPSSVSASVGDRVTITCKASQDVGTAVAWYQQKPGKSPKLLIYWASTRHTGVPDRFTGSGSGTDFTLTISSLQPEDFATYFCQQYSSYPYTFGGGTKVEIK

Off-Rate Ratio to that of EM0005-86c [5]: 73%
koff [6]: 0.00131 s⁻¹
B10: HuEM0005-86-11 (antibody, human IgG1, V domains shown)
VH: EVQLVQSGAEVKKPGASVKVSCKASGYTFTTYGINWVRQAPGQGLEWIGYIYIGNGYTEYNEKFKGRVTLTSDTSTSTAYMELSSLRSDDTAVYYCARDLMVIAPKTMDYWGQGTTVTVSS
VL: DIQMTQSPSSVSASVGDRVTITCKASQDVGTAVAWYQQKPGKSPKLLIYWASTRHTGVPDRFTGSGSGTDFTLTISSLQPEDFATYFCQQYSSYPYTFGGGTKVEIK

Off-Rate Ratio to that of EM0005-86c [1]: 116%
koff [2]: 0.00119 s⁻¹
B11: HuEM0005-86-13 (antibody, human IgG1, V domains shown)
VH: EVQLVQSGAEVKKPGASVKVSCKTSGYTFTTYGINWVRQAPGQGLEWIGYIYIGNGYTEYNEKFKGKATLTSDPSTRTAYMELSSLRSDDTAVYYCARDLMVIAPKTMDYWGQGTTVTVSS
VL: DIQMTQSPSSVSASVGDRVTITCKASQDVGTAVAWYQQKPGKSPKLLIYWASTRHTGVPDRFTGSGSGTDFTLTISSLQPEDFATYFCQQYSSYPYTFGGGTKVEIK

Off-Rate Ratio to that of EM0005-86c [1]: 81%
koff [2]: 0.000838 s⁻¹
B14: HuEM0005-86-14 (antibody, human IgG1, V domains shown)
VH: EVQLVQSGAEVKKPGASVKVSCKASGYTFTTYGINWVRQAPGQGLEWIGYIYIGNGYTEYNEKFKGRVTLTSDPSTRTAYMELSSLRSDDTAVYYCARDLMVIAPKTMDYWGQGTTVTVSS
VL: DIQMTQSPSSVSASVGDRVTITCKASQDVGTAVAWYQQKPGKSPKLLIYWASTRHTGVPDRFTGSGSGTDFTLTISSLQPEDFATYFCQQYSSYPYTFGGGTKVEIK
